Three proteins from PMC12060649, “Tuning the Dimensionality of Protein–Peptide Coassemblies to Build 2D Conductive Nanomaterials” (ACS Nano, 2025) can be followed below.

The data set concerns the molecule itself. Kind of data set: AFM + other: TEM; peptides in water at pH ≈ 5, sonicated 10 min, annealed at 80° for 30 min; AFM on mica at 1 mM, dry tapping mode; TEM at 10 μM, negative staining with uranyl acetate.

B1: E7 peptide (peptide)
peptide: EFEFEFEFEFEFE
notes: designed amphiphilic peptide, E6 with one more glutamic acid at the N-terminus; In the coassemblies it stood as pre-formed, sonicated self-assembled fibres; also called E7 fibers; E7 self-assembled fibers
As for B1, the binding result is “binds”.

B2: 6-repeat peptide (FE)6, E6 (peptide)
peptide: FEFEFEFEFEFE
notes: designed amphiphilic peptide, six repeats of the dipeptide Phe-Glu; Forms supramolecular fibres; also called (FE)n with n = 6
Consider B2, for which the binding result is reported as “binds”.

B3: E9 peptide (peptide)
peptide: EEFEFEFEFEFEFEE
notes: designed amphiphilic peptide, E6 with additional glutamic acids at both termini
B3: the binding result is recorded as “binds”.
